# Numbering of substitutions follows the chain as printed.
# B1: hAb005LH2L1b (antibody, human IgG1, V domains shown)
# VH: EVQLVQSGAEVKKPGASVKVSCKASGYTFTDYEMHWVRQAPGQGLEWMGAIDPETGNTAYIQKFKGRVTLTTDKSTSTAYMELRSLRSDDTAVYYCTRFYSYSHWGQGTTVTVSS
# VL: DIVMTQTPLSLPVTPGEPASISCRSSQSLVHSNRNTYLHWYLQKPGQSPQLLIYKVSNRFSGVPDRFSGSGSGTDFTLKISRVEAEDVGVYYCSQNTHVPPTFGGGTKVEIK
# B2: hAb003LH1L1 (antibody, human IgG1, V domains shown)
# VH: EVQLVQSGAEVKKPGSSVKVSCKASGYTFSDYEMHWVRQAPGQGLEWMGTIDPETGNTAYTQKFMDRVTITADKSTSTAYMELSSLRSEDTAVYYCTRGYSFTYWGQGTLVTVSS
# VL: DIVMTQTPLSLPVTPGEPASISCRSSQNIVHSNGNTYLQWYLQKPGQSPQLLIFKVSNRFSGVPDRFSGSGSGTDFTLKISRVEAEDVGVYYCFQGSHVPFTFGQGTKLEIK
# B3: hAb003LH1L1b (antibody, human IgG1, V domains shown)
# VH: B2 VH
# VL: B2 VL with G34R
# B4: hAb007LH3L1a (antibody, human IgG1, V domains shown)
# VH: B2 VH with S30T, T61N, M65K, D66G, I70L, G99P, F102L
# VL: B2 VL with N28S, I29F, N33D, N35D, F54Y, F101Y
# B5: hAb007LH1L1a (antibody, human IgG1, V domains shown)
# VH: B2 VH with T61N, M65K, D66G, G99P, F102L
# VL: B2 VL with N28S, I29F, N33D, N35D, F54Y, F101Y
# B6: hAb006LH3L1a (antibody, human IgG1, V domains shown)
# VH: B2 VH with S30T, M34I, T50A, E54K, T61N, D66G, I70L, G99Y, Y100F, T103A
# VL: B2 VL with N28T, I29F, N33D, F54Y, F101Y
# B7: hAb006LH2L1a (antibody, human IgG1, V domains shown)
# VH: B2 VH with S30T, M34I, T50A, E54K, T61N, D66G, G99Y, Y100F, T103A
# VL: B2 VL with N28T, I29F, N33D, F54Y, F101Y
# B8: hAb006LH2L1b (antibody, human IgG1, V domains shown)
# VH: B2 VH with S30T, M34I, T50A, E54K, T61N, D66G, G99Y, Y100F, T103A
# VL: B2 VL with N28T, I29F, G34A, F54Y, F101Y
# B9: hAb007LH2L1a (antibody, human IgG1, V domains shown)
# VH: B2 VH with S30T, T61N, M65K, D66G, G99P, F102L
# VL: B2 VL with N28S, I29F, N33D, N35D, F54Y, F101Y
# B10: hAb007LH1L1b (antibody, human IgG1, V domains shown)
# VH: B2 VH with T61N, M65K, D66G, G99P, F102L
# VL: B2 VL with N28S, I29F, G34R, N35D, F54Y, F101Y
# B11: hAb007LH1L1 (antibody, human IgG1, V domains shown)
# VH: B2 VH with T61N, M65K, D66G, G99P, F102L
# VL: B2 VL with N28S, I29F, N35D, F54Y, F101Y
# B12: hAb006LH1L1a (antibody, human IgG1, V domains shown)
# VH: B2 VH with M34I, T50A, E54K, T61N, D66G, G99Y, Y100F, T103A
# VL: B2 VL with N28T, I29F, N33D, F54Y, F101Y
# B13: hAb006LH1L1b (antibody, human IgG1, V domains shown)
# VH: B2 VH with M34I, T50A, E54K, T61N, D66G, G99Y, Y100F, T103A
# VL: B2 VL with N28T, I29F, G34A, F54Y, F101Y
# B14: hAb003LH1L1a (antibody, human IgG1, V domains shown)
# VH: B2 VH
# VL: B2 VL with N33D
# B15: hAb006LH2L1 (antibody, human IgG1, V domains shown)
# VH: B2 VH with S30T, M34I, T50A, E54K, T61N, D66G, G99Y, Y100F, T103A
# VL: B2 VL with N28T, I29F, F54Y, F101Y
# B16: hAb007LH1L1d (antibody, human IgG1, V domains shown)
# VH: B2 VH with T61N, M65K, D66G, G99P, F102L
# VL: B2 VL with N28S, I29F, G34S, N35D, F54Y, F101Y
# B17: hAb001H1L1a (antibody, human IgG1, V domains shown)
# VH: EVQLVESGGGLVQPGGSLRLSCAASGFSFNTNAMNWVRQAPGKGLEWVGRIRSKSNNYATYYADSVKDRFTISRDDSKNSLYLQMNSLKTEDTAVYYCVRDGYYVLFAYWGQGTLVTVSS
# VL: B2 VL with S25F, N28S, H31N, N33D, Q39E, Y41F, F54Y
# B18: hAb007LH1L1e (antibody, human IgG1, V domains shown)
# VH: B2 VH with T61N, M65K, D66G, G99P, F102L
# VL: B2 VL with N28S, I29F, G34V, N35D, F54Y, F101Y
# B19: hAb001H1aL1a (antibody, human IgG1, V domains shown)
# VH: B17 VH with D68G
# VL: B2 VL with S25F, N28S, H31N, N33D, Q39E, Y41F, F54Y
# B20: hAb006LH3L1e (antibody, human IgG1, V domains shown)
# VH: B2 VH with S30T, M34I, T50A, E54K, T61N, D66G, I70L, G99Y, Y100F, T103A
# VL: B2 VL with N28T, I29F, G34V, F54Y, F101Y
# B21: hAb001H2L1a (antibody, human IgG1, V domains shown)
# VH: B17 VH with N79S
# VL: B2 VL with S25F, N28S, H31N, N33D, Q39E, Y41F, F54Y
# B22: hAb006LH3L1d (antibody, human IgG1, V domains shown)
# VH: B2 VH with S30T, M34I, T50A, E54K, T61N, D66G, I70L, G99Y, Y100F, T103A
# VL: B2 VL with N28T, I29F, G34S, F54Y, F101Y
# B23: hAb001H2L1 (antibody, human IgG1, V domains shown)
# VH: B17 VH with N79S
# VL: B2 VL with S25F, N28S, H31N, Q39E, Y41F, F54Y
# B24: hAb001H1L1 (antibody, human IgG1, V domains shown)
# VH: B17 VH
# VL: B2 VL with S25F, N28S, H31N, Q39E, Y41F, F54Y
# B25: GC33 IgG (antibody, V domains shown)
# VH: QVQLVQSGAEVKKPGASVKVSCKASGYTFTDYEMHWVRQAPGQGLEWMGALDPKTGDTAYSQKFKGRVTLTADKSTSTAYMELSSLTSEDTAVYYCTRFYSYTYWGQGTLVTVSS
# VL: DVVMTQSPLSLPVTPGEPASISCRSSQSLVHSNRNTYLHWYLQKPGQSPQLLIYKVSNRFSGVPDRFSGSGSGTDFTLKISRVEAEDVGVYYCSQNTHVPPTFGQGTKLEIKR
# Molecular target: monkey GPC3-His protein (monkey)
# Assay: ELISA, monkey GPC3-His coated; antibody 0.11 nM
row,Binder,OD450 nm
1,B1,1.17
2,B2,2.31
3,B3,2.18
4,B4,0.337
5,B5,0.605
6,B6,0.226
7,B7,0.137
8,B8,2.1
9,B9,0.468
10,B10,0.958
11,B11,1.46
12,B12,0.227
13,B13,2.13
14,B14,1.48
15,B15,2.01

# Molecular target: monkey GPC3 on HEK293T-monkey GPC3 cells (monkey)
# Assay: FACS on HEK293T-monkey GPC3 cells
Binder,EC50 [nM],Max MFI [MFI]
B16,13.6,80400
B17,1.87,24900
B18,19.9,59700
B19,1.68,27200
B20,6.54,82900
B21,2.03,26900
B22,6.16,84800
B23,1.08,33300
B14,4.77,22600
B24,1.33,33500
B25,5.96,87000

# Molecular target: monkey GPC3-His protein (monkey)
# Assay: ELISA, monkey GPC3-His coated; antibody 0.02 nM
row,Binder,OD450 nm
1,B1,0.687
2,B2,1.34
3,B3,1.22
4,B4,0.135
5,B5,0.197
6,B6,0.08
7,B7,0.065
8,B8,0.924
9,B9,0.182
10,B10,0.305
11,B11,0.491
12,B12,0.078
13,B13,0.877
14,B14,0.483
15,B15,1.06

# Molecular target: monkey GPC3-His protein (monkey)
# Assay: ELISA, monkey GPC3-His coated; antibody 0.53 nM
row,Binder,OD450 nm
1,B1,1.25
2,B2,2.65
3,B3,2.46
4,B4,1.08
5,B5,1.57
6,B6,1.05
7,B7,0.549
8,B8,2.57
9,B9,1.41
10,B10,1.97
11,B11,2.43
12,B12,0.917
13,B13,2.49
14,B14,2.2
15,B15,2.38

# Molecular target: monkey GPC3-His protein (monkey)
# Assay: ELISA, monkey GPC3-His coated; antibody 0.004 nM
row,Binder,OD450 nm
1,B1,0.232
2,B2,0.467
3,B3,0.418
4,B4,0.079
5,B5,0.097
6,B6,0.057
7,B7,0.055
8,B8,0.34
9,B9,0.093
10,B10,0.128
11,B11,0.122
12,B12,0.058
13,B13,0.309
14,B14,0.148
15,B15,0.358

# Molecular target: monkey GPC3-His protein (monkey)
# Assay: ELISA, monkey GPC3-His coated; antibody 66.66 nM
row,Binder,OD450 nm
1,B1,1.23
2,B2,2.58
3,B3,2.55
4,B4,2.34
5,B5,2.36
6,B6,2.18
7,B7,2.06
8,B8,2.69
9,B9,2.45
10,B10,2.54
11,B11,2.56
12,B12,2.08
13,B13,2.77
14,B14,2.42
15,B15,2.39

# Molecular target: monkey GPC3-His protein (monkey)
# Assay: ELISA, monkey GPC3-His coated; antibody 13.33 nM
row,Binder,OD450 nm
1,B1,1.24
2,B2,2.62
3,B3,2.64
4,B4,2.37
5,B5,2.44
6,B6,2.09
7,B7,1.84
8,B8,2.46
9,B9,2.39
10,B10,2.37
11,B11,2.54
12,B12,1.82
13,B13,2.5
14,B14,2.35
15,B15,2.23

# Molecular target: monkey GPC3-His protein (monkey)
# Assay: ELISA, monkey GPC3-His coated; antibody 0.0008 nM
row,Binder,OD450 nm
1,B1,0.09
2,B2,0.188
3,B3,0.192
4,B4,0.069
5,B5,0.067
6,B6,0.044
7,B7,0.047
8,B8,0.128
9,B9,0.065
10,B10,0.071
11,B11,0.085
12,B12,0.05
13,B13,0.111
14,B14,0.087
15,B15,0.129

# Molecular target: monkey GPC3-His protein (monkey)
# Assay: ELISA, monkey GPC3-His coated; antibody 2.67 nM
row,Binder,OD450 nm
1,B1,1.32
2,B2,2.58
3,B3,2.58
4,B4,1.89
5,B5,2.21
6,B6,1.95
7,B7,1.39
8,B8,2.7
9,B9,2.1
10,B10,2.39
11,B11,2.6
12,B12,1.63
13,B13,2.75
14,B14,2.29
15,B15,2.46
